Results taken from patent US20240026019A1 (Innovent, published 2024).
Each block holds one molecule with its values, some of them ahead of it.

Experiments:
[1] = target: TNFR2 on human K562 chronic myeloid leukemia cells and on primary human Treg cells (human) (UniProt P20333); experiment: flow cytometry on human K562 CML cells (negative control), MFI(FL2); unit taken from the axis Conc log(nM); the curve stays near the baseline and the value lies beyond the highest concentration shown
[2] = target: human TNFR2 overexpressed on CHO-S cells (CHOS-hTNFR2) (human) (UniProt P20333); experiment: flow cytometry on CHO-S cells overexpressing human TNFR2 (negative control), MFI-FL2-A; unit taken from the axis Conc log(nM); the curve is flat, so the fit is ambiguous
[3] = target: cynomolgus monkey TNFR2 overexpressed on CHO-S cells (CHOS-cTNFR2) (cynomolgus monkey); experiment: flow cytometry on CHO-S cells overexpressing cynomolgus monkey TNFR2 (negative control), MFI-FL2-A; unit taken from the axis Conc log(nM); the curve stays near the baseline
[4] = target: T1, human TNFR2 overexpressed on CHO-S cells (CHOS-hTNFR2) (human, UniProt P20333 23-461); experiment: flow cytometry on CHO-S cells overexpressing human TNFR2 (chimeric antibodies), MFI-FL2-A; unit taken from the axis Conc log(nM); the curve is still rising to about 29000 at log(nM) 2.5
T1 construct: also called hTNFR2 CHO-S; human TNFR2 molecule overexpressed on CHO-S cells
T1 sequence: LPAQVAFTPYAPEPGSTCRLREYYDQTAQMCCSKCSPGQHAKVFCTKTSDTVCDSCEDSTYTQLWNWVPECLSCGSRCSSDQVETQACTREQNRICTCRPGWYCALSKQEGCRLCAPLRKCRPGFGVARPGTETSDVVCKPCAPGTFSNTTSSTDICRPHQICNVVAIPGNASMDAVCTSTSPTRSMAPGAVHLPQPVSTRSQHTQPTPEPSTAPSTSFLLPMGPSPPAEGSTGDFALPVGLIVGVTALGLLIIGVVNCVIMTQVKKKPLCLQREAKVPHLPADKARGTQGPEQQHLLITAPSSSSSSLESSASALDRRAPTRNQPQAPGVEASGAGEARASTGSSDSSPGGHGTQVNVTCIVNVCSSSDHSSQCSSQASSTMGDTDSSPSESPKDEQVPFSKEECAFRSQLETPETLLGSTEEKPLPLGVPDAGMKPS
Protocol: (§1) In the study, the binding of the chimeric antibodies of the present invention, after being diluted in a gradient, to a stable CHO-S cell strain overexpressing human TNFR2 on the surface was assayed by using a flow cytometer. cDNAs encoding human TNFR2 (SEQ ID NO: 60) and cynomolgus monkey TNFR2 (SEQ ID NO: 61) were cloned into pCH01.0 vectors (Invitrogen), which were transfected into CHO-S cells (Invitrogen) to produce CHO-S cells overexpressing human TNFR2 (CHOS-hTNFR2) and CHO-S cells overexpressing cynomolgus monkey TNFR2 (CHOS-cTNFR2).
(§2) CHOS-hTNFR2 cells or CHOS-cTNFR2 cells were counted and diluted to 2×10⁶ cells/mL, and added to a U-bottom 96-well plate at 100 μL/well. The mixture was centrifuged at 300 g for 5 min, and the cell medium was removed. The dilutions of the samples (the chimeric antibodies 3C4, 69B1, and 72G8 and the positive control antibody OPI) (the antibodies were subjected to a three-fold serial dilution in PBS from the maximum antibody concentration of 300 nM) were added to the U-plate, and the cells were resuspended at 100 μL/well and left to stand on ice for 30 min. The suspension was centrifuged at 400 g for 5 min, and the supernatant was removed. The cells were washed twice with PBS. The mixture was centrifuged at 300 g for 5 min, and PBS was removed. […]

[5] = target: T2, rh-TNFR2-His (recombinant human TNFR2, His tag) (human, UniProt P20333 23-257); experiment: BLI (ForteBio), antibody on sensor, 100 nM rh-TNFR2-His in solution, 1:1 model
T2 construct: Soluble antigen of the ForteBio assay; not shown: His tag
T2 sequence (looked up): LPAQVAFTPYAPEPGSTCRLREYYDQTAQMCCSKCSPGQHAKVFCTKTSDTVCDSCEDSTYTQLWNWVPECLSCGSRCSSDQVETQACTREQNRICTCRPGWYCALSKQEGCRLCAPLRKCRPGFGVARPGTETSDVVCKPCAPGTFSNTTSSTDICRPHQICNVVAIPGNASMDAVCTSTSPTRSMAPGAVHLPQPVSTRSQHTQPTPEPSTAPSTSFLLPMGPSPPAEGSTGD
Protocol: (§3) In the present invention, the equilibrium dissociation constant (KD) for the binding of the 3 exemplary chimeric antibodies of the present invention described above to human TNFR2 (hTNFR2), cynomolgus monkey TNFR2 (cTNFR2), murine TNFR2(mTNFR2), and human TNFR1(hTNFR1) was determined by biological optical interferometry (ForteBio). For comparison, the equilibrium dissociation constant (KD) of a positive control antibody OPI (humanized antibody SBT-002e in WO 2017083525, VH sequence of SEQ ID NO: 58, VL sequence of SEQ ID NO: 59) was determined.
(§4) The ForteBio affinity assay was performed according to the prior art (Estep, P, et al., High throughput solution based measurement of antibody-antigen affinity and epitope binning. MAbs, 2013.5(2): p. 270-278). Briefly, a sensor was equilibrated offline in an assay buffer for 30 min, and was equilibrated online for 60 s to establish a baseline. The purified antibodies obtained as described above were loaded online onto an AHQ sensor (ForteBio) for the ForteBio affinity assay. The sensor with the loaded antibodies was then exposed to each of 100 nM hTNFR2, cTNFR2, mTNFR2, and hTNFR1 antigens for 5 min before transferring the sensor to an assay buffer for 5 min of dissociation for dissociation rate measurement. The kinetic analysis was performed using a 1:1 binding model.

[6] = target: T3, cynomolgus monkey TNFR2 overexpressed on CHO-S cells (CHOS-cTNFR2) (cynomolgus monkey, UniProt P20333 23-461 (human entry)); experiment: flow cytometry on CHO-S cells overexpressing cynomolgus monkey TNFR2 (chimeric antibodies), MFI-FL2-A; unit taken from the axis Conc log(nM); the curve is still rising at log(nM) 2.5, no upper plateau
T3 construct: also called cTNFR2 CHO-S
T3 chain: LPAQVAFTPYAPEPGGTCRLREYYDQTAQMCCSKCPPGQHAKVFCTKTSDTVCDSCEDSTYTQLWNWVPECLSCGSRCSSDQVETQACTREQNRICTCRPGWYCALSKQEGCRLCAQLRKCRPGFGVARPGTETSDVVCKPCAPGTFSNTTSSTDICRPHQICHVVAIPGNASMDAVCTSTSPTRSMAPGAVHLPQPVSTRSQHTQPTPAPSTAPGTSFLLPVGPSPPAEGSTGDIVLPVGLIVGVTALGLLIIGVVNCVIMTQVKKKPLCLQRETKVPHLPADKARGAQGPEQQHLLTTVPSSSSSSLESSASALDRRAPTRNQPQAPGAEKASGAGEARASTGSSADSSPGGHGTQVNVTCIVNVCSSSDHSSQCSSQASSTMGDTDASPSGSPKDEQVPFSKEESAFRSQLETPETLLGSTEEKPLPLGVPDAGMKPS
Protocol: as §1, §2

[7] = target: T4, CYNO-TNFR2-His (cynomolgus monkey TNFR2, His tag) (cynomolgus monkey, UniProt A0A2K5VET2 132-366); experiment: BLI (ForteBio), antibody on sensor, 100 nM CYNO-TNFR2-His in solution, 1:1 model
T4 construct: Soluble antigen of the ForteBio assay; also called cTNFR2; not shown: His tag
T4 sequence: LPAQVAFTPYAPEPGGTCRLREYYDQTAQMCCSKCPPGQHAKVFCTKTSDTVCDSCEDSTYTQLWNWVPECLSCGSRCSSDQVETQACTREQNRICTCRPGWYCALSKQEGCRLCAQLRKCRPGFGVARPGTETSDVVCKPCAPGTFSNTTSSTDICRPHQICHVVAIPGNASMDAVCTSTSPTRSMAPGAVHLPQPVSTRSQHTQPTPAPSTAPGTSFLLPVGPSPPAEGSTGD
Protocol: as §3, §4

[8] = target: T1, human TNFR2 overexpressed on CHO-S …; experiment: flow cytometry on CHO-S cells overexpressing human TNFR2 (hybridoma antibodies), MFI
Protocol: (§5) In the study, the binding of the hybridoma antibodies (3C4, 69B1, and 72G8) of the present invention, after being diluted in a gradient, to a stable CHO-S cell strain overexpressing human TNFR2 on the surface was assayed by using a flow cytometer.
(§6) CHOS-hTNFR2 cells or CHOS-cTNFR2 cells were counted and diluted to 2×10⁶ cells/mL, and added to a U-bottom 96-well plate at 100 μL/well. The mixture was centrifuged at 300 g for 5 min, and the cell medium was removed. The dilutions of the samples (the hybridoma antibodies 3C4, 69B1, and 72G8 and the positive control antibody OPI) (the antibodies were subjected to a two-fold serial dilution in PBS from the maximum antibody concentration of 300 nM) were added to the U-plate, and the cells were resuspended at 100 μL/well and left to stand on ice for 30 min. The suspension was centrifuged at 400 g for 5 min, and the supernatant was removed. The cells were washed twice with PBS. The mixture was centrifuged at 300 g for 5 min, and PBS was removed. […] The mixture was centrifuged at 400 g for 5 min, and the supernatant was removed. The cells were washed 3 times with PBS. The cells were resuspended in 200 μL of 1×PBS and assayed by FACS.

[9] = target: T3, cynomolgus monkey TNFR2 overexpressed …; experiment: flow cytometry on CHO-S cells overexpressing cynomolgus monkey TNFR2 (hybridoma antibodies), MFI
Protocol: as §5, §6

- EC50 [1]: 0.0223 µM
- EC50 [2]: 13500 µM
- EC50 [3]: 0.00112 µM
Molecule: IgG (antibody)

- EC50 [4]: 0.0284 µM
- Kd [5]: 0.00451 µM
- koff [5]: 0.00515 s⁻¹
- kon [5]: 1.14e+06 M⁻¹ s⁻¹
- EC50 [6]: 0.122 µM
- Kd [7]: 0.00311 µM
- koff [7]: 0.00509 s⁻¹
- kon [7]: 1.64e+06 M⁻¹ s⁻¹
B1: chimeric antibody 72G8 (antibody, human IgG1, kappa, V domains shown)
VH: EVQLQQSGAELARPGASVMLSCKASGYTFTSYWMQWLKQRPGQGLEWIGAIYPGDGDTRYTQKFKGKATLTADKSSSTAYMQLSSLASEDSAVYYCVRDDGLYYAMDYWGQGTSVTVSS
VL: QIVLTQSPTIMSASLGERVTMTCTASSSVSSSYLHWYQQKPGSSPKLWIYSTSNLASGVPARFSGSGSGTSYSLTISSMEAEDAATYYCHQYHRSPPTFGGGTKLEIKR

- EC50 (read off the curve) [8]: ~0.001 µM
- EC50 (read off the curve) [9]: ~0.001 µM
B2: hybridoma antibody 69B1 (antibody, V domains shown)
VH: QIQLVQSGPELKKPGETVKISCKASGYTFTDYSMNWVKQAPGKGLKWMGWLNTETGEPIYADDFKGRFVFSLETSASTAYLEINNLNDEDTATYFCAREAIYYGTSYVLDYWGQGTSVTVSS
VL: DIVLTQSPASLAVSLGQRATISCRASESVEYYGTNFMQWYQQKPGQPPKLLIYSASNVESGVPARFSGSGSGTDFSLNIHPVEEDDIAVYFCQQSRKDPSTFGEGTNLEIK
notes: Murine antibody from the hybridoma (detected with anti-mouse IgG)
